± gives the uncertainty stated by the source.
Experiment: protein stability index of a GFP-peptide fusion (yeast GPS) (PSI 1-4); higher = more stable; sorted into four equal gates, so the index is relative within each strain
How it was run: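 Tiled 17-residue peptides from yeast proteins were fused downstream of GFP on a plasmid that also expresses Cherry, and the pooled library was carried in yeast. Mid-log cultures grown in leucine-free medium were sorted into four equal gates by GFP/Cherry fluorescence ratio. Plasmids from each gate were PCR-amplified and Illumina-sequenced, and reads were assigned to strains by barcodes. Each peptide's protein stability index is the sum, over gates, of the gate's read frequency multiplied by its gate number.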

Row | Sequence | protein stability index (doa10∆) | protein stability index (pdr5∆) | protein stability index (san1∆) | protein stability index (ubr1∆)
1 | NYNHLLPTRYTLDVEAF [RPL27A] | 1.45 ± 0.045 | 1.61 ± 0.047 | 1.57 ± 0.087 | 1.52 ± 0.032
2 | VYTLACRSCPYEFPIEG [RPC11] | 1.22 ± 0.16 | 1.36 ± 0.15 |  | 1.54 ± 0.17
3 | SLHRQQQQQQQQVPPLP [DLS1] | 2.78 ± 0.056 | 2.81 ± 0.06 | 2.63 ± 0.046 | 2.94 ± 0.061
4 | AYPGKLICPQYGTENKD [CSL4] | 1.89 ± 0.073 | 1.93 ± 0.068 | 1.72 ± 0.15 | 1.9 ± 0.078
5 | LIKQVPRLLGPQLSKAG [RPL1A] | 1.98 ± 0.068 | 1.73 ± 0.06 | 1.78 ± 0.081 | 1.6 ± 0.059
6 | KYRPETAAEKKERLTKE [RPL8A] | 3.08 ± 0.081 | 2.76 ± 0.076 | 3.12 ± 0.056 | 3.01 ± 0.067
7 | TGIFMAMHYSSNIELAF [COB] | 1.3 ± 0.065 | 1.51 ± 0.063 | 1.24 ± 0.12 | 1.5 ± 0.078
8 | EIKLLEISCKQWEISNM [CSI1] |  | 3.44 ± 0.27 |  | 3.55 ± 0.23
9 | SCGYPSAKTRSHNWAAK [RPL37B] | 2.95 ± 0.076 | 3.15 ± 0.059 | 3.3 ± 0.09 | 2.91 ± 0.069
10 | DTVEEKKEEKLNIGKNF [SIR4] | 2.42 ± 0.16 | 2.71 ± 0.25 | 3.34 ± 0.2 | 2.42 ± 0.13
11 | KKRNMPLQSIPEIGNRK [SWI1] | 2.62 ± 0.041 | 2.67 ± 0.037 | 2.81 ± 0.038 | 2.63 ± 0.033
12 | LEDDSLLSYPIKLDRWL [RPN12] | 3.12 ± 0.072 | 2.87 ± 0.057 | 2.99 ± 0.072 | 2.78 ± 0.063
13 | DKFRKACSSSGRETILS [SIR3] | 1.94 ± 0.042 | 2.08 ± 0.042 | 1.83 ± 0.073 | 2.64 ± 0.046
14 | VQKILPLSNEVFEISEN [SWI1] | 2.13 ± 0.043 | 1.85 ± 0.039 | 1.73 ± 0.06 | 2.17 ± 0.035
15 | HKSGKLSVKIGNVVMDI [RPC53] | 1.53 ± 0.1 | 1.25 ± 0.073 | 1.07 ± 0.2 | 
16 | IAKSRYWYFLQKLHKVK [RPL20A] | 3.06 ± 0.11 | 3.06 ± 0.087 | 2.79 ± 0.075 | 3.03 ± 0.084
17 | FISSGTSLLDSLISVLE [YJL039C/NUP192] | 2 ± 0.056 | 2.27 ± 0.052 | 2.17 ± 0.08 | 1.91 ± 0.047
18 | EKLTLVTLSEIYNELSY [CSN9] | 1.48 ± 0.047 | 1.66 ± 0.036 | 1.57 ± 0.073 | 1.49 ± 0.046
19 | EWVKLHRLLQRALFRQL [RMP1] | 1.47 ± 0.25 | 1.58 ± 0.21 | 2.86 ± 0.14 | 2.16 ± 0.14
20 | LHVVSKSSIEKDPSPEI [SIN4] | 2.91 ± 0.054 | 3.03 ± 0.066 | 3.13 ± 0.052 | 3.14 ± 0.051
21 | LFNESFIMASVGKYDKA [SRP72] | 3 ± 0.29 | 2.85 ± 0.27 |  | 
22 | AFGGLNFGGGNNTTPSS [YJL041W/NSP1] | 1.32 ± 0.061 | 1.29 ± 0.064 | 1.46 ± 0.087 | 1.21 ± 0.13
23 | SIESKLEEHKNHLDELQ [SMC1] | 2.99 ± 0.093 | 2.86 ± 0.13 | 2.92 ± 0.069 | 3 ± 0.076
24 | TKWGLINYQVDSKLLPK [SWI3] | 2.8 ± 0.11 | 2.41 ± 0.12 | 1.92 ± 0.15 | 2.55 ± 0.077
25 | AQYCYKNGLYQEAFKIY [SRP72] | 2.87 ± 0.075 | 2.94 ± 0.097 | 3.1 ± 0.069 | 3.25 ± 0.059
26 | KTCAKSVIQLCGGINDS [ECM29] | 3.43 ± 0.26 |  |  | 
27 | SPTENGVFDPASYAKYL [RPL22A] | 2.98 ± 0.051 | 3.19 ± 0.061 | 3.08 ± 0.045 | 2.88 ± 0.043
28 | KNYDATDKPFSSTQDVI [CSI1] | 2.37 ± 0.13 | 2.96 ± 0.1 | 2.85 ± 0.088 | 3.06 ± 0.086

Row | Sequence | protein stability index (doa10∆) | protein stability index (pdr5∆) | protein stability index (san1∆) | protein stability index (ubr1∆)
29 | LPEQLKSGKFCSHCGCV [SNM1] | 2.79 ± 0.084 | 3.11 ± 0.15 | 2.89 ± 0.076 | 2.7 ± 0.071
30 | KKRSKVRKETYSSYIYK [HTB2] | 3.15 ± 0.074 | 3.33 ± 0.066 | 3.14 ± 0.071 | 3.38 ± 0.052
31 | LVDVMTTQGGLTSVTRH [RPO21] | 2.14 ± 0.1 | 2.38 ± 0.072 | 2.1 ± 0.09 | 2.3 ± 0.069
32 | AQNQGMFGAKPAGTSLF [YGL172W/NUP49] | 2.32 ± 0.054 | 2.36 ± 0.064 | 2.34 ± 0.075 | 2.37 ± 0.04
33 | MILNYNPSQGVSNSGAQ [UBP6] | 3.25 ± 0.096 | 3.37 ± 0.086 | 3.14 ± 0.064 | 3.25 ± 0.055
34 | FKVQELLHSKPSLLLQK [NAS6] | 2.23 ± 0.13 | 2.3 ± 0.074 | 2.64 ± 0.14 | 2.31 ± 0.084
35 | EKSPDPTIRSNAVLGLG [YCS4] | 2.38 ± 0.052 | 2.26 ± 0.054 | 2.3 ± 0.074 | 2.53 ± 0.043
36 | IIQPFLDNSKMDYHFIF [RGR1] | 2.99 ± 0.13 | 2.06 ± 0.082 | 2.22 ± 0.049 | 2.31 ± 0.11
37 | SKVGSADTGRDDTKETV [RPN11] | 3.14 ± 0.13 | 3.36 ± 0.089 | 3.59 ± 0.068 | 3.04 ± 0.12
38 | TVQSERAFQKQPHIFNN [RPS11A] | 2.69 ± 0.051 | 2.58 ± 0.043 | 2.53 ± 0.045 | 2.79 ± 0.034
39 | RFVIWTEAAFTKLDQVW [RPL4A] | 3.18 ± 0.11 | 2.39 ± 0.096 | 2.28 ± 0.24 | 2.39 ± 0.13
40 | THVANFMNDAAADVSAV [YML103C/NUP188] | 2.79 ± 0.097 | 2.77 ± 0.073 | 2.44 ± 0.081 | 2.84 ± 0.049
41 | VAIAETDSWESFFVSVR [FAS1] |  | 3.05 ± 0.3 |  | 
42 | VCKKADVDLHKRAGELT [RPS18A] | 3.23 ± 0.15 | 3.31 ± 0.12 | 3.39 ± 0.2 | 3.46 ± 0.11
43 | LKNLLRSNFRVNLSQEA [SNU114] | 2.05 ± 0.093 | 2.26 ± 0.089 | 2.58 ± 0.11 | 2.58 ± 0.11
44 | SLRRQVKKLEIQQHARY [RPL43A] | 2.75 ± 0.11 | 2.89 ± 0.1 | 2.96 ± 0.077 | 3.29 ± 0.09
45 | NKGELETQPGCNEEQTL [RPO31] | 3.21 ± 0.16 | 3.38 ± 0.12 | 3.21 ± 0.2 | 3.2 ± 0.082
46 | RSINNLIQEHDSRKNRE [BRN1] | 3.24 ± 0.065 | 3.37 ± 0.052 | 3.15 ± 0.043 | 3.38 ± 0.053
47 | TINKAVQVKVLGKYEFS [ESC2] | 1.48 ± 0.077 | 1.37 ± 0.092 | 1.89 ± 0.18 | 2 ± 0.076
48 | QNDELTMGMRALLKLSV [DIS3] | 2.01 ± 0.094 | 2.49 ± 0.078 | 1.55 ± 0.067 | 2.7 ± 0.066
49 | GPHKGKAPRILSTGRKF [RPL18A] | 2.81 ± 0.26 |  | 3.21 ± 0.16 | 2.92 ± 0.13
50 | VSLEERTKNLVSKMEKA [SMC4] |  | 2.95 ± 0.064 |  | 
51 | KTLHSQMMSKGIGALFT [RPC34] |  |  |  | 3.18 ± 0.21
52 | KQREIVKAFLSIFEDAI [NUT1] | 1.92 ± 0.081 | 1.65 ± 0.071 | 2.38 ± 0.19 | 1.76 ± 0.1
53 | NDELVELLANKCPLLVE [GRR1] | 2.08 ± 0.058 | 2.13 ± 0.04 | 2.1 ± 0.078 | 1.96 ± 0.035
54 | DPRNLVNQTGSTKKDTV [YCG1] | 2.9 ± 0.097 | 3.15 ± 0.084 | 2.53 ± 0.075 | 2.86 ± 0.039
55 | GSIPVDQVVVRGIDTLQ [RPB3] | 2.14 ± 0.06 | 2.02 ± 0.076 | 1.89 ± 0.099 | 2.5 ± 0.048

Reference: the supplement of paper PMC9732359
